Experimental data reported in US20240067748A1.

Experiments:
[1] = target: human Trop2 on cells (human) (UniProt P09758); experiment: flow cytometry on BxPC-3 tumor cells (second panel of the table); negative control
[2] = target: human Trop2 on cells (human) (UniProt P09758); experiment: flow cytometry on BxPC-3 tumor cells; negative control
[3] = target: monkey Trop2 on CHO-K1 cells (monkey); experiment: flow cytometry on CHO-K1/monkey Trop2 cells (second run); negative control
[4] = target: monkey Trop2 on CHO-K1 cells (monkey); experiment: flow cytometry on CHO-K1/monkey Trop2 cells; negative control

Chain of monkey Trop2 on CHO-K1 cells (monkey) (A0A2K5 entry or part of it limits assumed): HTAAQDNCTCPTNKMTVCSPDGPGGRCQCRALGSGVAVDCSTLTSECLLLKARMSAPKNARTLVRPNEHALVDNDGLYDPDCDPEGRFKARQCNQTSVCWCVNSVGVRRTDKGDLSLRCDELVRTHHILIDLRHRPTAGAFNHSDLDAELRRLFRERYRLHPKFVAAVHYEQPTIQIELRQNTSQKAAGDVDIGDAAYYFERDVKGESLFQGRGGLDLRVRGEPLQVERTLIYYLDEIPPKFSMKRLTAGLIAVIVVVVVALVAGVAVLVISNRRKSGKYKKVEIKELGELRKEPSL
Chain of human Trop2 on cells (human) (P09758 27-323): as the sequence (A0A2K5 entry or part of it limits assumed) above, with V36M, E46K, N67S, V204I, V266M, S272T counted along it

- Maximum MFI value [1]: 670 MFI
- Maximum MFI value [2]: 77 MFI
- Maximum MFI value [3]: 109 MFI
- EC50 [4]: 1890 nM
- Maximum MFI value [4]: 277 MFI
Substance: hIgG1 (antibody)
